In US20190276541A1 (Seagen, published 2019):

Molecular target: T1, CD3 on human T cells (human, UniProt P07766 23-207)
T1 construct: whole, on cells; The native CD3 complex on primary T cells, which were gated with anti-CD2-FITC; also called T cell receptor CD3; CD3 complex
Assay: flow cytometry on human T cells in PBMCs, anti-Fc Alexa 647 secondary
Protocol: T cells are used to assess binding of antibodies to CD3. For T cell binding assay, PBMCs are isolated from 100 ml of human blood sample using the protocol described previously. […] 50 μl of cells are added to each well of an assay plate. […] Equal volumes of PBMCs and bispecific antibody dilutions are mixed to produce a binding curve. Anti-CD2-FITC (BD Biosciences, San Jose, Calif.) is added to each well to selectively stain T cells. The plate is incubated for 1 hour at 4° C. Cells are washed and pelleted three times with FACS buffer consisting of PBS, 5% FBS and 0.05% sodium azide. […] Cells are washed and pelleted three times again with FACS buffer. Cells are then resuspended in 200 μL FACS buffer and analyzed on a BD ACCURI™ C6 flow cytometer (BD Biosciences, San Jose, Calif.).

T1 sequence (P07766 23-207): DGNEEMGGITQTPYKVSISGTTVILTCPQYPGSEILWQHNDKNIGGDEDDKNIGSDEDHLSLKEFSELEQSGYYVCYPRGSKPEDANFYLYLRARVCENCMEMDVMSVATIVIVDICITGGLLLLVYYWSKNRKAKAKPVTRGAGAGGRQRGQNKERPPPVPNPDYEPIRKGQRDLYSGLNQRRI

B1: 2G12-2B2 having VL0 and VH3 variable domains (antibody, V domains shown)
VH: EVQLVQSGAEVKKPGASVKVSCKASGYTFTDHAIHWVRQAPGQGLEWMGYFSPGNDDIKYNEKFRGRVTMTADKSSSTAYMELRSLRSDDTAVYFCKRSLSTPYWGQGTLVTVSS
VL: DIVMTQSPDSLAVSLGERATINCKSSQSLLNRGNHKNYLTWYQQKPGQPPKLLIYWASTRESGVPDRFSGSGSGTDFTLTISSLQAEDVAVYYCQNDYTYPYTFGQGTKVEIK
notes: also called 2G12-2B2 control; 2G12-2B2 comprising VL0 and VH3
binding result: no binding (tested: 0 to 10 µg per 500,000 cells)
